From US20230151068A1

Target: biotinylated His-Avi-TEAD (194-411) (UniProt P28347)
Assay: SPR, biotinylated TEAD immobilized on the chip, Siderocalin-YAP as analyte

Chain of Siderocalin-fused YAP (50-171) (P80188 other isoform, or with tags, fused parts or gaps): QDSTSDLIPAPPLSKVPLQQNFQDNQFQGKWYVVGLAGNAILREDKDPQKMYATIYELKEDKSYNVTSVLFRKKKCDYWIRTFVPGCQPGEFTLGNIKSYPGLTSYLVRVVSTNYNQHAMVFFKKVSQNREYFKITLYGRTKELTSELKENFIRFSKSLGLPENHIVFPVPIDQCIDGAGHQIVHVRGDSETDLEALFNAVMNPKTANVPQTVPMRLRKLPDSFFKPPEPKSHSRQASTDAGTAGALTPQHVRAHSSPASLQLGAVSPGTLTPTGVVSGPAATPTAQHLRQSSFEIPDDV

- Kd: 0.57 µM
Substance: Siderocalin-fused YAP (50-171) (from UniProt P80188 21-198; P46937 50-171)
